Results as given in the supplement of paper PMC9732359.
± gives the uncertainty stated by the source.

Assay: protein stability index of a GFP-peptide fusion (yeast GPS) (PSI 1-4); higher = more stable; sorted into four equal gates, so the index is relative within each strain
Procedure, shortened: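 Yeast carrying a pooled library were grown to mid-log phase in leucine-free medium. Each library plasmid expresses Cherry and has a tiled 17-residue yeast protein peptide fused downstream of GFP. Cells were sorted into four equal gates by GFP/Cherry ratio, and plasmids from each gate were PCR-amplified, Illumina-sequenced and assigned to strains by barcode. Summing, across gates, the read frequency times the gate number gave each peptide's protein stability index.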

Sequence | protein stability index (doa10∆) | protein stability index (pdr5∆) | protein stability index (san1∆) | protein stability index (ubr1∆)
FSSNERYFFWLQEKNSG [RPN13] | 1.27 ± 0.048 | 1.65 ± 0.072 | 2.18 ± 0.076 | 2.25 ± 0.055
FTLWWSPTINRANVYVG [PRP8] | 1.99 ± 0.089 | 1.88 ± 0.07 | 1.61 ± 0.15 | 2.04 ± 0.051
FTMMTSEPLTLKVLSEH [PCI8] | 1.73 ± 0.056 | 1.96 ± 0.049 | 1.94 ± 0.095 | 1.54 ± 0.045
FTSAPIEVTIGIDQYSF [AAR2] | 1.52 ± 0.09 | 1.93 ± 0.086 | 1.53 ± 0.12 | 1.64 ± 0.082
FVKFITYLTQEILILIN [SIN4] | 2.02 ± 0.05 | 1.7 ± 0.044 | 1.57 ± 0.069 | 1.59 ± 0.042
FVKFLSKKGSLENNIRE [RPL10] | 3.32 ± 0.18 | 3.32 ± 0.16 | 3.11 ± 0.076 | 3.3 ± 0.057
FVKGISRDIKALQDSLF [YML103C/NUP188] | 2.25 ± 0.071 | 2.18 ± 0.058 | 1.97 ± 0.096 | 1.7 ± 0.043
FVKKTSEEIDSLNEDVE [SMC2] | 2.97 ± 0.17 | 3.2 ± 0.19 | – | –
FVKVTKATLELLKLIEP [RPL7A] | 3.06 ± 0.11 | 2.87 ± 0.096 | 2.62 ± 0.15 | 2.91 ± 0.13
FVSESPSFVKSGKLRDY [ISW2] | 2.41 ± 0.059 | 2.11 ± 0.051 | 2.28 ± 0.049 | 2.7 ± 0.044
FVSSLSNTSTLKNMLYV [BRR2] | 1.88 ± 0.058 | 2.08 ± 0.049 | 1.85 ± 0.064 | 2.18 ± 0.036
FYRGNYTDFENTFQKTV [FAS1] | 2.41 ± 0.074 | 2.63 ± 0.062 | 2.34 ± 0.1 | 2.67 ± 0.056
FYSKNRLLITGTPLQNN [ISW2] | – | 1.39 ± 0.17 | – | –
GAELRSVCTEAGMFAIR [RPT1] | 2.61 ± 0.18 | 3.4 ± 0.3 | – | 3.03 ± 0.23
GAHLLEFQPSGNVTELY [PRE5] | 2.54 ± 0.12 | 2.99 ± 0.076 | 2.92 ± 0.12 | 3.02 ± 0.11
GAIAYNQFKRIDTLLYL [RET1] | 1.4 ± 0.1 | 1.42 ± 0.1 | 1.48 ± 0.14 | 1.54 ± 0.066
GAIILTKMDGHARGGGA [SRP54] | 2.88 ± 0.24 | 3.13 ± 0.16 | 2.95 ± 0.13 | –
GAIKPFTPKLIYDFITL [ECM29] | 1.73 ± 0.081 | 1.84 ± 0.098 | 1.87 ± 0.3 | 1.36 ± 0.062
GAKFENIVHNFKERQMM [AAR2] | 3.32 ± 0.081 | 2.71 ± 0.096 | 2.76 ± 0.089 | 3.04 ± 0.11
GAKYVIRDSGDRIDLRY [RPO21] | 3.23 ± 0.16 | 3.31 ± 0.15 | – | 3.45 ± 0.13
GANTSAAQTLLQMDYKD [PRE9] | 3 ± 0.061 | 3.13 ± 0.058 | 3.09 ± 0.048 | 2.96 ± 0.051
GASTVMKTKTINAQGEE [PRP8] | 3.31 ± 0.11 | 3.06 ± 0.15 | 3.2 ± 0.083 | 3.07 ± 0.07
GDEGYNEDMVRRANFYK [SNF12] | 3.38 ± 0.14 | 3.36 ± 0.17 | 3.44 ± 0.076 | 3.45 ± 0.14
GDIVLTRVTRLSLQRAN [CSL4] | 2.14 ± 0.098 | 1.41 ± 0.093 | 1.59 ± 0.16 | 1.32 ± 0.12
GDKFSEDFRIQFKTTIK [UBP6] | 3.14 ± 0.1 | 2.93 ± 0.09 | 2.32 ± 0.087 | 2.58 ± 0.059
GDKVVVTIWYRAPELLL [SSN3] | 1.74 ± 0.058 | 1.78 ± 0.072 | 1.74 ± 0.068 | 2.05 ± 0.044
GDSGISPEESKARSPGI [SIR4] | 3.52 ± 0.15 | – | – | –
